Measurements as given in a protein production outcome set (Wang et al. 2014).

assay: label from the status in PepcDB records
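Further: failed if final PepcDB status was selected cloned or expressed and not failed if soluble or beyond.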

**Q.** For “MLQMNLEELRRIQEEMSRSVVLEDLIPLEELEYVVGVDQAFISDEVVSCAVKLTFPELEVVDKAVRVEKVTFPYIPTFLMFREGEPAVNAVKGLVDDRAAIMVDGSGIAHPRRCGLATYIALKLRKPTVGITKKRLFGEMVEVEDGLWRLLDGSETIGYALKSCRRCKPIFISPGSYISPDSALELTRKCLKGYKLPEPIRIADKLTKEVKRELTPTSKLKLEHHHHHH”, which protein production is on record?
**A.** The protein production was “failed”.

**Q.** For “MLQNIPTHVIGGPLGAGKTSLIKRLLAQKPAHERWAVLINEFGQIGLDAALLTTTADGIALGEVAGGCLCCVNGVPFQIGLGRLLRKARPDRLLIEPSGLGHPAQLMAQLREAPWRGVLTVQPGVMVLDAAAMATGQPLPATQQEALAEAGLVVMNKSEQLDEAARQALAEQMKPCALLWTRHADLSLSRLPGFVEGTAVDKHAVDNLTLPNSIGRLPALWADPNVPICLSQTSAEGWSVGWRWHPSQQFDLQRVLHWLEGMAWRRAKVVIHSEGGWYSGNVLEGAPLAWQISEWRQDSRLELIFSAPQDVDTLQAQMAGCLA”, which protein production is on record?
**A.** Its protein production is “failed”.

**Q.** With “MLQRLFIFLLIFLILPDIYLYLRFIVHLTAKRWLRILYWLPAFLLSAGLLYLVYFSNNAFAERHTQAIGWFSIFFFLFTAPKLLLSLCTIIGVPFHKWLRWPRTPFICTGLTLAVISIVMIIYGSFIGRTQFDVKEVTYSSPKLPSAFDGYRIVQLSDIHIGSWQGNASAIQKLVKLVNEQQADLIVFTGDLVNHRAVELNDFQDILAGLKAKDGVYSILGNHDYGPYFHWKSKDEQDDNLNDLLQRQAAMGWKLLNNSHTILIQGSDSIALIGVENEGEPPFSQYADLPEAMRGTEGMFQILLSHNPTHWRREVLPQTYIDLMLAGHTHAMQLKFGNHSPSSYIYPEWSGMYLEGTRGLYVNEGIGYVGLPFRFGAWPEITVLTLRQ” as the sequence, how does the protein production read?
**A.** The protein production was “failed”.

**Q.** With “MLRHILTAKNLLSNPIFKFPNCLPFLSTVCCICRQFVGENLCSFADSPSLFEMWFHFLQLRSALNISSALRQVVHGTRWHAKRKSYKVLFWREITPLAVPIFMENACVLLMGVLSTFLVSWLGKDAMAGVGLADSFNMVIMAFFAAIDLGTTVVVAFSLGKRDRRRARVATRQSLVIMTLFAVLLATLIHHFGEQIIDFVAGDATTEVKALALTYLELTVLSYPAAAITLIGSGALRGAGNTKIPLLINGSLNILNIIISGILIYGLFSWPGLGFVGAGLGLTISRYIGAVAILWVLAIGFNPALRISLKSYFKPLNFSIIWEVMGIGIPASVESVLFTSGRLLTQMFVAGMGTSVIAGNFIAFSIAALINLPGSALGSASTIITGRRLGVGQIAQAEIQLRHVFWLSTLGLTAIAWLTAPFAGVMASFYTQDPQVKHVVVILIWLNALFMPIWSASWVLPAGFKGARDARYAMWVSMLSMWGCRVVVGYVLGIMLGWGVVGVWMGMFADWAVRAVLFYWRMVTGRWLWKYPRPEPQKCEKKPVVSE” as the sequence, how does the protein production read?
**A.** The protein production was “failed”.

**Q.** For “MLRLARKGLQTAVVRSYAKDVKFGAEGRQAMLVGVNLLADAVSVTMGPKGRNVIIEQSWGSPKITKDGVTVAKSIDLKDKYQNLGAKLIQDVANKANEEAGDGTTCATVLARAIAKEGFESIRQGGNAVEIRRGVMNAVEVVVAELKKISKKVTTPEEIAQVATISANGDTVVGNLISDAMKKVGTTGVITVKDGKTLNDELELIEGMKFDRGYISPYFITSAKGAKVEYEKALVLLSEKKISQVQDIVPALELANKLRRPLVIIAEDVDGEALTTLVLNRLKVGLQVVAIKAPGFGDNRKNTLKDMGIATGATIFGDDSNLIKIEDITANDLGEVDEVTITKDDTLLLRGRGDQTEIEKRIEHITDEIEQSTSDYEKEKLNERLAKLSKGVAVLKIGGGSEVEVGEKKDRVTDALCATRAAVEEGIVPGGGVALLRSLTALKNYKAANEDQQIGVNIVKKALTQPIATIVKNAGLEPSSIIDEVTGNSNTSYGYDALNGKFVDMFEAGIIDPTKVVRTALQDASGVASLLATTECVVTEIPKEEAVGGPAGGMGGMGGMGGMGGMGF”, which protein production is on record?
**A.** The protein production was “not failed”.

**Q.** Which protein production does the source give for “MLRNTSHSYGGIARALHWLCALAVIAALVFIELKGNFPKGDPLRSGLGYAHVQAGLIVLLLVLPRLAWRLGNPPPAIEPAPSPAMNLLAHAGHWALYALMLALPILGIAFIQANGREVALFGLALPAFMPNDPPLGKELKEIHELLGNVLLWLSILHAAAAVWHHRFLKDDTLTRLTGPMR” here?
**A.** Its protein production is “failed”.

**Q.** Which protein production does the source give for “MLRRSFSSYLRQGLLLAFLAAFSALWLAQAHAERRAAIVVGNSEYPFAPLTNPRNDAKLIANTLTELKFDVLLFYDVKKSAEKDLNDAIRAHLIGADMAVFYYAGHALQYNGQNLLLPVDTRISSAKEVAADAMRLNDLIDIVKNDPVGVKVFILDACRNNPVAKEKGLQQGLAYTEAGSGQVLVAFATSAGEVAYDGTGINSPYSSALANALLMPNLDVYDTFRTVRGDVRQATGGSQIPWITGSIETKFVFRQGDAGKQVAQAEHAAEADGGLTIDEVLWSFISDSQNPEDFERFVKVFPNSRYAAEATEKSRFKVAALTKRGLYVNGNLVSSSIAATAPIGASDKALSEEFVFQQAGERAVSETFRIWPSNLPDTQRGMRTMVTDCDLYAADPNDPQRAVPGVTNGLVNVRDALRACAFALAADINNPRLQFQFGRVLEIARRYSWAEHFYELAGNQQYSAALINMGYMARVGMGREIDYGRAFDPYVRAAALGNLRARTDIGSAYIAGQGVPKLPEEGVLWYRLAASSGWANAITALGDAYRLGTGVKQDYVQAASLYSAAADTGQIDAMANLGQAYLAGEGVKKDVPRGLELLQRANDMGNRYAPYFMAQLYLKGDRKLPADPRRALALLELSANRGNEYAYVRLAWGHRDGVFTGGKPDLRRAYFDASLAARLRADQGEQAKAEIAKKIDPATRKEIDGEVELYIKQNGP” here?
**A.** The protein production was “failed”.

**Q.** For “MLRSSSVDRKREEEPRLSYMIARVDRIISKYLTEHLSALEISLPQFTALSVLAAKPNLSNAKLAERSFIKPQSANKILQDLLANGWIEKAPDPTHGRRILVTVTPSGLDKLNQCNQVVQQLEAQMLQGVDINLAFLIRNNLELMVKNLSTFSSLDQSKE”, which protein production is on record?
**A.** The protein production was “not failed”.

**Q.** With “MLRVFHFYGMLRLPRSGIEQSLKGERCTVSTQIRILPENLTNKIAAGEVVERPASVVKELVENSLDAGCRDIIVEIEAGGRRLIRVTDDGSGMSREDALLSLERHATSKIASDDDLFSLCTLGFRGEALPSIASVSRFSLATRQRGAIEGTEIYAEGGRIKEVKACGMAEGTVITVRNLFFNTPARLKFMKSAETEAGHVGDLLTRLAISRPEVRFTYVNDGKTVFRALNGTMEERVAALLGRTIAGALYPLDSTVEGVTVRGLVARPDVSRSAAGHLYTFINGRFIRDRVVQHAVLQAYRNFLERGRYPVVVLFIQVPAGDVDVNVHPTKHEVRFRQQGVVHDVIQGVIEEALRPTPWLRKESQSTVSSPPPERREPATSSERVAEVRELLVNYRPSPAPSRPFFQPLPAVVPAPDQSAEEPDRPMDRGYFSRLAIIGQFHASYILCQDGSDLVIIDQHAAHERVAFERLKAQFAAGGVEGQGLLFPDTLELSHREVAELREHGEELRRIGFDLDEFGGTTWVVKGVPRLLAGKDYLRILRDTLEEFQAVGANRSVADAVEEILTRIACHSVVRGEHPLTTAQIEALFAQMDATDYSTNCPHGRPVLQRLTLAEVERMFKR” as the sequence, how does the protein production read?
**A.** Its protein production is “failed”.

**Q.** With “MLRVLSVGVAFILLGCQFFNKTTLHLKYKDYPKNSALKTAFTLTPPKIFFNARFVPPFYQKEFKKAITQQIAYFLKDKSAFILNVSGNVFFSFEENPKDLKAIKERLKKTIEPNADPKAVMRFLNLQASLILECVPQTTCPFDTLLIPTAFSVPVYYANRLGDNPSLFSQEDKTYHNALIKALNKAYYSLMEGLEKRLNAIKNAEWL” as the sequence, how does the protein production read?
**A.** Its protein production is “failed”.

**Q.** Which protein production does the source give for “MLRVVEVCWRESHMKVLAINSSPRMDKGNTALILNPFLEGMKEAGAEVELFYTKKLKISPCTGEFNCWLKTPGKCYQNDDMNILYPRIDAADVIVFATPVYVDGVTGQMKNFIDRMLPRVEPFVELRDGHCRHPVRGGPKALKFVLVSNCGFWEMDNFDSLLVFMKAFCKNASTEFAGALLRPHGEALSSMLEMGAPIDDVFEAAREVGRQLVKEGKMSQETLDIVSRELLPKEMYIQIANQTFRQCLESLDRLEHHHHHH” here?
**A.** The protein production was “failed”.

**Q.** With “MLSANQIKFLRSLRERKYRLREQAFAVEGPKLVGEMLPFYRCRMLVGTAAMLRAVSTPHDAEVVELPESFDFKRISTQTTPQPLMAVFDLPAEPEPVVEGLTLLLDGVQDPGNVGTILRTADWFGIRHVWLGTGSADVFSPKVVQASMGALARVQPTPLKNTVDTLAYFRRQGIPVYGAFLDGQSLYEAPLPNFTEPAILVLGSEGRGISPEVAAEITDRLTIPASGLSVKGHTESLNVAIATAILCSEWRRRS” as the sequence, how does the protein production read?
**A.** The protein production was “not failed”.

**Q.** Which protein production does the source give for “MLSEQALELIDIVARVGSFTAAANRLHKVPSAVSYAVKQIEEELGVVLFERHHRSVTLTPAGGHFVKQARNLLTQIDEMKRGTQRVANGWQPTLSIALDNIVRADRISVLIADFYRHFHDIELIIRIEVFNGVWEALATGHSDVAIGATTAIPVGGVFQYKDMGDIEWAFLVSKNHPLANIDRPLTDEELRPFPSICLEDTSREIPKRMTWLLENQRRLVVPDWIRAINCFREGLGIGYMPVHLASVFIKAGALVEKQLENPKLTSPCCLAWNADKMSPALAWVLDYLGDTDKLHREWLA” here?
**A.** The protein production was “failed”.

**Q.** Which protein production does the source give for “MLSKILKTSLCFIFMTCWVTTAQAFKGPLETPASMKLHATTSQLTAVTRNGNRLAAVGARGLVLLSDDNGKKWQQVAVPVSSNLVSVQFPVPDQGWAVGHDGVVLHSGDGGRTWSKQLDGNQVAKIMLKHYEKLAAEGDAAASKILPDIQRILQEGADKPFMDVWFLDEKEGFVAGAFNLIMHTTDAGKTWVPLFERTDNPKNLHIYALKGVGKEVYLAGEMGMLRRWDRASQRFVTIASPYKGTFFGLLAKDTTILAFGLRGNAFRSSDRGNTWRKLNTNTTAGLTGGTFLDDGRAVLVSQDGQVLVIDVGSETFVPAKVSSPMAFSSVAPAGKNGIVAVGSRGVITESLK” here?
**A.** Its protein production is “failed”.

**Q.** For “MLSKRDAILKAAVEVFGKKGYDRATTDEIAEKAGVAKGLIFHYFKNKEELYYQAYMSVTEKLQKEFENFLMKNRNRDIFDFMERWIEKKLEYSASHPEEADFLITLVSVDEGLRKRILLDLEKSQRVFFDFVREKLKDLDLAEDVTEEIALKFLMWFFSGFEEVYLRTYQGKPELLKRDMNTLVEEVKVMLRILKKGMTK”, which protein production is on record?
**A.** Its protein production is “not failed”.

**Q.** With “MLSKSKTTKALLYSTAALSLFAASHVHADETSHWTARSVDQIKADISVNDNQQTYTVQYGDTLGSIVEAMGIDMNVLANIKEITNIDLIFPGTVLTTTYNADNQAVSVKVETPSSETSDTPVVAESNLTTNEVTVNGQSVVASDLSAPVETVSLTATQAPAKEESTQVVSEVTEAIASASDTPAYADTEQPVADAIDHVTSSAEETLAEEEAPATETSAQAETTEVAATSEAASEAASEVPAEQLAAASEAPESSEAPAEQPAAAPESSEAPAEQPAATSEAASEAPASVVPVATSEAVSEAPAVSEVPAEQLAAASEAPESSEVPAEQPAAAPESSEAPAEQPAATSEAAPATSEAPAEQLAATSEAASTPNTYPVGQCTWGAKSLAPWAGNNWGNAKDWIASAQAAGHSVGTTPVAGAIAVWPNDGGGYGHVAYVTSASGVNSIQVMESNYAGNMLIGNYRGTFDPTSSAHGGSVYYIYP” as the sequence, how does the protein production read?
**A.** The protein production was “failed”.

**Q.** Which protein production does the source give for “MLSRRASLAAIAIGLIAAAGAAHAQSPLGIGSAEPSFSLGGPFAPLMQWINVHQQMFYRALTGALKAMREDSWALGSLIGLSFAYGVFHAAGPGHGKAVISSYMIANETQLRRGILISFVSALIQGLMAIGLVGAAWLVLRGTSITMTKATQAMEIASFAMVALFGAWLLVRKLWSLRIRREPVPVFATAGEAPAARTNGMGTGLRFQGKPVFADHDHNGTGDLCTACGKSHAPDPMLLKGKNFSLHEAWSAIIAVGLRPCSGAIIVMSFALLNGLYLGGVLSVLAMSLGTAITVSALAIMAVSAKGLAVRFAGPGSRKAAGISHAIEIAGALFVLIMGLLLLGASLQF” here?
**A.** Its protein production is “failed”.
